Source: US20080193457A1, “Ra Antigenic Peptides” (priority 2003, published 2008)

B1: HPX (351-365) (peptide)
peptide: TPHGIILDSVDAAFI
notes: Synthetic peptide in the in vitro assay; also called Hemopexin (351-365)
B2: GILT (192-205) (peptide)
peptide: GDRGMQLMHANAQR
notes: Found as eluted natural peptide and tested as synthetic peptide; also called Interferon-gamma-inducible lysosomal thiol reductase (192-205)
B3: PSMD8 (218-233) (peptide)
peptide: GPNNYYSFASQQQKPE
notes: Found as eluted natural peptide and tested as synthetic peptide
B4: IL-1R (79-94) (peptide)
peptide: EKLWFVPAKVEDSGHY
notes: Found as eluted natural peptide and tested as synthetic peptide; also called Interleukin-1 receptor (79-94)
B5: CYRB (359-375) (peptide)
peptide: ETMKMRYEHIDHTFEIQ
notes: as for B3
B6: ITIH4 (274-287) (peptide)
peptide: NVVFVIDKSGSMSG
notes: Synthetic peptide in the in vitro assay
B7: SH3BGRL3 (13-26) (peptide)
peptide: GSREIKSQQSEVTR
notes: as for B6
B8: Fig1 (293-309) (peptide)
peptide: GPHDVHVQIETSPPARN
notes: as for B6

Target: HLA-DRB1*0401 (Homo sapiens, UniProt P01903+P01911, A100K/A169T/F76Y/I96L/K127E/L162R/M171V/N62H/P40V/Q125Y/R42H/S133A/S149N/S66Y/V115G/V209L/W38E)
Assay: not given
Conditions: reference peptides, literature (Table 1 footnote h); cited from earlier work

| Molecule | HLA-DRB1*0401 binder |
| --- | --- |
| M. tuberculosis Hsp65 (3-13) (KTIAYDEEARR; UniProt P9WPE7 3-13, looked up, fragment) | weak HLA-DRB1*0401 binder |

Target: T1, HLA-DR4 molecules (HLA-DRB1*0401), purified, detergent-solubilized (human)
T1 construct: mature; The text says HLA-DR4
Assay: in vitro competition binding assay: purified HLA-DR4, biotinylated HA(307-319) reporter, synthetic competitor peptide
Conditions: not given

| Molecule | binding result |
| --- | --- |
| B1 | binds |
| B2 | binds |
| B3 | binds |
| B4 | binds |
| B5 | binds |
| B6 | binds |
| B7 | binds |
| B8 | binds |
